Data published in patent US20230414780A1 (VECT HORUS, published 2023).
Where a chain is given by its changes, count along the chain named.

B1: B8^V12 (VHH)
VHH: EVQLVESGGGVVQPGGSLRLSCAASGEIFYINFMRWYRQAPGKQREWVAGFTRDGSTNYPDSAKGRFTISRDNAKNTVYLQIDSLKPEDTAVYYCYMLDTWGQGTQVTVSS
B2: B8^V16 (VHH)
VHH: B1 VHH with Y30S, W47Q
B3: B8^V36 (VHH)
VHH: B1 VHH with Y30S, F33V
B4: B8^V31 (VHH)
VHH: B1 VHH with F29K, Y30S
B5: B8^V27 (VHH)
VHH: B1 VHH with Y30S, N58V
B6: B8^V32 (VHH)
VHH: B1 VHH with F29R, Y30S
B7: B8^V33 (VHH)
VHH: B1 VHH with Y30S, D99K
B8: B8^V29 (VHH)
VHH: B1 VHH with Y30S, L98A
B9: B8^V34 (VHH)
VHH: B1 VHH with F29R, Y30S, S62I
B10: B8^V35 (VHH)
VHH: B1 VHH with F29R, Y30S, T57L, Q103K
B11: C5^V16h20 (VHH)
VHH: EVQLVESGGGVVQPGGSLRLSCAASGTDFSINFIRWYRQAPGKGLEFVAGFTATGNTNYADSVKGRFTISRDNAKNAVYLQMNSLRPEDTAVYYCYILDKWGQGTQVTVSS
B12: C5^h25 (VHH)
VHH: B11 VHH with Y37V, A77T, V78L, M82I, N83D, I97M
B13: C5^V30 (VHH)
VHH: EVQLVESGGGVVQPGGSLKLSCVASGTDKSINFIRWYRQAPGKQREFVAGFTATGNTNYADSMKGRFTISRDNTKNAVYLQIDSLKPEDTAVYYCYMLDKWGQGTQVTVSS
B14: C5^V31 (VHH)
VHH: B13 VHH with K29R
B15: VHH A8 (C5^V8) (VHH)
VHH: B13 VHH with K29F, D99A
B16: VHH A18 (C5^V18) (VHH)
VHH: B13 VHH with K29F, L98V
B17: C5^V32 (VHH)
VHH: B13 VHH with K29F, R38S, F67L, D99G

Legend:
[1] = target: T1, rhesus monkey TfR ectodomain fused to a mouse IgG1 Fc fragment (rhesus monkey, UniProt I0FKY7 89-760); test: SPR, at equilibrium
T1 construct: extracellular domain; not shown: mouse IgG1 Fc fragment
Method: (§1) Binding properties of some VHHs were also evaluated using Surface Plasmon Resonance (SPR) experiments. The human, mouse and rhesus monkey TfR (having respectively GeneBank number NM_003234.2, NM_011638, NC_041755.1) ectodomains were fused to the N-terminal end of a mouse IgG1 Fc fragment and the recombinant proteins were produced and purified in-house. Interaction of VHHs with the receptors was tested using a Biacore T200 (GE Healthcare). Receptors were immobilized on an HC 1500M or a CM5 sensor chip (Xantec) either directly or on an anti-mouse IgG previously immobilized. VHHs were injected over flowcell by using the single-cycle kinetic or the multiple-cycle kinetic methods.

[2] = target: T1, rhesus monkey TfR ectodomain fused to a …; test: SPR, kinetic
Method: as §1

[3] = target: T2, human TfR ectodomain fused to a mouse IgG1 Fc fragment (human, UniProt P02786 89-760); test: SPR, kinetic
T2 construct: extracellular domain; ectodomain fused to the N-terminal end of the Fc, made in-house; not shown: mouse IgG1 Fc fragment
Method: as §1

[4] = target: T3, human transferrin receptor (hTfR) fused to EGFP, on CHO cells (human, UniProt P02786 1-760); test: apparent Kd, flow cytometry, CHO cells
T3 construct: whole, on cells; also called human TfR; CHO-hTfR-EGFP; not shown: EGFP from pEGFP-C1 vector, fused to the N-terminal (intracellular) end of hTfR
Method: (§2) The binding properties of VHHs with affinity for the TfR from different species (i.e., human (h), mouse (m) and rhesus monkey (rh)) were tested using flow cytometry, and apparent affinities (Kd app) were determined. All experiments were performed in 96 well plates using 2×10⁵ cells/well, at 4° C. with shaking. CHO cell lines expressing the hTfR, mTfR or rhTfR fused to EGFP were saturated with PBS/BSA 2% solution during 30 min to avoid nonspecific binding, followed by incubation with purified VHHs at increasing concentrations for 1 hr. After one wash in PBS/BSA 2%, cells were incubated for 1 hr with an anti-6His tag antibody (mouse), washed twice with PBS/BSA 2%, and incubated for 1 hr with an Alexa647-conjugated anti-mouse secondary antibody. After two last washes in PBS/BSA 2%, cells were fixed by incubation for 15 min with PBS/PFA 2%, washed once with PBS and finally resuspended in PBS. Fluorescence levels were assessed using an Attune NxT flow cytometer (Thermo Fisher Scientific). Experimental data were fitted with GraphPad Prism® software using a nonlinear fit to determine the apparent Kd constants. […] Table 5 hereafter summarizes apparent Kd obtained for the tested VHHs.

[5] = target: T4, rhesus monkey transferrin receptor (rhTfR) fused to EGFP, on CHO cells (rhesus monkey); test: apparent Kd, flow cytometry, CHO cells
T4 construct: whole, on cells; also called rhesus monkey TfR
Method: as §2

[6] = target: T5, mouse transferrin receptor (mTfR) fused to EGFP, on CHO cells (mouse, UniProt Q62351 1-763); test: apparent Kd, flow cytometry, CHO cells
T5 construct: whole, on cells; also called mouse TfR; CHO-mTfR-EGFP; not shown: EGFP
Method: as §2

[7] = target: T2, human TfR ectodomain fused to a mouse …; test: SPR, at equilibrium
Method: as §1

[8] = target: T6, mouse TfR ectodomain fused to a mouse IgG1 Fc fragment (mouse, UniProt Q62351 89-763); test: SPR, kinetic
T6 construct: extracellular domain; not shown: mouse IgG1 Fc fragment
Method: as §1

T2 sequence (P02786 89-760): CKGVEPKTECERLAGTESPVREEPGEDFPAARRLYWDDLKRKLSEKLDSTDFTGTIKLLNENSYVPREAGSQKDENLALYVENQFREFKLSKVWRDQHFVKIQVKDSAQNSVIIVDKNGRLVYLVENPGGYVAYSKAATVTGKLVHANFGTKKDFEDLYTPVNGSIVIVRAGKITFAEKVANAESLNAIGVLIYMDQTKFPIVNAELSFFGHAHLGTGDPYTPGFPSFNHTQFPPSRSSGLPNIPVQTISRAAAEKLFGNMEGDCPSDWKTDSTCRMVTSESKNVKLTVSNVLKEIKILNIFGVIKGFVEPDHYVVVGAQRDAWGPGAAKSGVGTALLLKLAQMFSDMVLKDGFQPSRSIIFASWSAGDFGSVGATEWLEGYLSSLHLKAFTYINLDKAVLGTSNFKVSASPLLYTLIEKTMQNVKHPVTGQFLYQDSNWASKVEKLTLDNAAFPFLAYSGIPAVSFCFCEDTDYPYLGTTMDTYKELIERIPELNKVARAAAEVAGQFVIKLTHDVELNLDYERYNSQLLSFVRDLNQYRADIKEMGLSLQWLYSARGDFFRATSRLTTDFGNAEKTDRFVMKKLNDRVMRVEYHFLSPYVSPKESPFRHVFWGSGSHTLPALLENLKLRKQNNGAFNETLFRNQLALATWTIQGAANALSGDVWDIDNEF
T6 sequence (Q62351 89-763): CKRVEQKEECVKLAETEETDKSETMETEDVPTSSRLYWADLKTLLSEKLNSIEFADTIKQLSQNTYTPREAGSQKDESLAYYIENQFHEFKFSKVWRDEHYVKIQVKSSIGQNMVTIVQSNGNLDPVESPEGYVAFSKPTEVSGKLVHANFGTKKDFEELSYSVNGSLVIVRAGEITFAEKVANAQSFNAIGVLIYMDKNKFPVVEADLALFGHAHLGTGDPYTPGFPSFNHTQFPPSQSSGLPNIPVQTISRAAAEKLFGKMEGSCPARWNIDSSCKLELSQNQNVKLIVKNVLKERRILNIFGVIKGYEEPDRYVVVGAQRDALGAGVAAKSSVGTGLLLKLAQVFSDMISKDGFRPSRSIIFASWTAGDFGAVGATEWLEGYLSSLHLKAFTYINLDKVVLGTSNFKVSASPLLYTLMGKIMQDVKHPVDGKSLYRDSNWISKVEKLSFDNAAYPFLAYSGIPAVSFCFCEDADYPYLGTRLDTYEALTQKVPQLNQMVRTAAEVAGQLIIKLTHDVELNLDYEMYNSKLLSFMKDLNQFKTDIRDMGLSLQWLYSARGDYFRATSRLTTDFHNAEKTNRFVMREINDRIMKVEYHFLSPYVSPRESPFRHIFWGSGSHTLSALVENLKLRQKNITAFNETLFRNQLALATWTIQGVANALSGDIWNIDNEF
T3 sequence (P02786 whole entry, the tested form may be a part): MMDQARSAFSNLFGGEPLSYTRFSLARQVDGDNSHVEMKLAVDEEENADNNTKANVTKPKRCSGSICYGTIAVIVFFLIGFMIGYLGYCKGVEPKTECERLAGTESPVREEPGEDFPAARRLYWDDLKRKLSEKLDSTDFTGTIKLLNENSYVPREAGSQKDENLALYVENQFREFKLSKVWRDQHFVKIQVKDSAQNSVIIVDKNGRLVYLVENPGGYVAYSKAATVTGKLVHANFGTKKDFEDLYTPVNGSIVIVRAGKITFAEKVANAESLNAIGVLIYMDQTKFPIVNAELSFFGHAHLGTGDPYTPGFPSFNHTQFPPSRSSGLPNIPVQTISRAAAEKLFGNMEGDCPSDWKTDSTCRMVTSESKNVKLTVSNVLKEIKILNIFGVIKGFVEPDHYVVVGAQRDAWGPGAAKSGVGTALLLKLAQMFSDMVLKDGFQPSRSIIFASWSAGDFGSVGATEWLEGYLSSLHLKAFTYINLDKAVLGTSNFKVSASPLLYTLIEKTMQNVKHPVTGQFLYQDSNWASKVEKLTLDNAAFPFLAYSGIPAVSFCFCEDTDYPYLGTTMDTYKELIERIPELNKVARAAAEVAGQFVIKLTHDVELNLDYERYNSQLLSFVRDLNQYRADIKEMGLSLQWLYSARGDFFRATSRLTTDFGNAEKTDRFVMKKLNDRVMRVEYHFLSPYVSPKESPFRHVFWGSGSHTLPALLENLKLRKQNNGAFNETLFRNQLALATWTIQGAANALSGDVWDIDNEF
T5 sequence (Q62351 whole entry, the tested form may be a part): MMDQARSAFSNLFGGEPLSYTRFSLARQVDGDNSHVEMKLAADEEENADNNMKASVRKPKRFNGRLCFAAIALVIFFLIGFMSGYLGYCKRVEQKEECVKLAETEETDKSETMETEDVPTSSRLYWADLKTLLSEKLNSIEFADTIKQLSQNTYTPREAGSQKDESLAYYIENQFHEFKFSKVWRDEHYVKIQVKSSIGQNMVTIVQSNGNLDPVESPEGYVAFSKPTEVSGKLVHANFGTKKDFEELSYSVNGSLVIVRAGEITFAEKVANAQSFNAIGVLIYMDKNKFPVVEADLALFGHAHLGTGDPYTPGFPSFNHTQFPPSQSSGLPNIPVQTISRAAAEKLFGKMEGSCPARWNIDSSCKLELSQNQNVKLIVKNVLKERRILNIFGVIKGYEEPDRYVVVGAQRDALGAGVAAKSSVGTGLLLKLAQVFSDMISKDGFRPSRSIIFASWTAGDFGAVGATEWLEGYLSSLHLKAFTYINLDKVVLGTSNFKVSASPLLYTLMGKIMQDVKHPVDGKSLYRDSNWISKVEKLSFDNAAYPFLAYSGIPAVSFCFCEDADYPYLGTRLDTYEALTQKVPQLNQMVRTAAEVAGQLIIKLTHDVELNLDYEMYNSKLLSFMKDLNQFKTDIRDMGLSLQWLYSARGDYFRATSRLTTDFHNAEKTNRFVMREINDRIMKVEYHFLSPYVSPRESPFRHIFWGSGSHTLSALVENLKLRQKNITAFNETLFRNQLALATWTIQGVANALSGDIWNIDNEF

Binder | Kd [1] [nM] | Kd [2] [nM] | koff [2] [s⁻¹] | kon [2] [M⁻¹ s⁻¹] | Kd [3] [nM] | koff [3] [s⁻¹] | kon [3] [M⁻¹ s⁻¹] | Kd [4] [nM] | Kd [5] [nM] | Kd [6] [nM] | Kd [7] [nM] | Kd [8] [nM] | koff [8] [s⁻¹] | kon [8] [M⁻¹ s⁻¹]
B1 | 25.1 | 12.1 | 0.0119 | 997000 | 0.984 | 0.00169 | 1.04e+06 | 4.7 | 6.9 | 743 | – | – | – | –
B2 | 222 | 135 | 0.0438 | 325000 | 12.8 | 0.0133 | 1.03e+06 | 6.2 | 307 | 3.6 | 76.3 | – | – | –
B3 | 206 | – | – | – | 33.3 | 0.019 | 571000 | 27 | 130 | 891 | 39.2 | – | – | –
B4 | 35.4 | 32.1 | 0.0509 | 1.59e+06 | 60.8 | 0.0221 | 364000 | 14 | 20 | 1690 | 63.8 | – | – | –
B5 | 36.8 | 53.8 | 0.0206 | 455000 | 7.29 | 0.00722 | 1.01e+06 | 6.8 | 16 | 760 | 3.22 | – | – | –
B6 | 35.1 | 32.7 | 0.0418 | 1.28e+06 | 30.1 | 0.0126 | 420000 | 7.1 | 14 | 1210 | 36.5 | – | – | –
B7 | 86 | 73.4 | 0.0509 | 693000 | 46.2 | 0.0328 | 710000 | 50 | 170 | 230 | 46.5 | – | – | –
B8 | 100 | 202 | 0.0942 | 1.16e+06 | 44 | 0.0169 | 682000 | 9 | 72 | 1670 | 21.8 | – | – | –
B9 | 49.4 | 51.5 | 0.102 | 1.97e+06 | 33.3 | 0.0244 | 733000 | 13 | 68 | 1070 | 32.4 | – | – | –
B10 | 34.4 | 33.7 | 0.0303 | 898000 | 20.6 | 0.0143 | 698000 | 7.1 | 23 | 513 | 23.9 | – | – | –
B11 | – | – | – | – | 112 | 0.0399 | 360000 | 23 | 793 | 622 | 115 | 301 | 0.075 | 251000
B12 | – | – | – | – | – | – | – | 777 | – | 755 | 1550 | – | – | –
B13 | 339 | 373 | 0.192 | 515000 | 94 | 0.03 | 319000 | 31 | 362 | 696 | 112 | – | – | –
B14 | 242 | 234 | 0.123 | 524000 | 47.5 | 0.0182 | 383000 | 11 | 256 | 445 | 64.8 | – | – | –
B15 | – | – | – | – | 94.8 | 0.0558 | 504000 | 23 | 494 | 427 | 84.3 | – | – | –
B16 | – | – | – | – | 43.3 | 0.021 | 487000 | 12 | 481 | 416 | 37.8 | – | – | –
B17 | 265 | 358 | 0.266 | 745000 | 35.8 | 0.0247 | 692000 | 66 | 653 | 1740 | 38.6 | – | – | –
